This assay has as its target pVHL172-BirA(R118G)-HA fusion protein (human) (UniProt P40337). The experiment in a line: proximity labelling; BioID with truncated VHL-BirA constructs in HeLa and 786-O cells; blots quantified as biotinylated prefoldin / pVHL expression level, full-length VHL213-BirA set as 1 (Fig 1C).

Where “and” joins values, the source holds several entries; their conditions need not be identical. Identical values can stand only once.

In the case of “Prefoldin subunit 1 (from UniProt O60925 1-122) (natural protein)”, the fold lower binding than with the exons 2&3 version was 4 fold and 5 fold.
Regarding “Prefoldin subunit 3 (from UniProt P61758-1 1-197) (natural protein)”, the fold lower binding than with the exons 2&3 version was 4 fold and 5 fold.

The record behind these values is article PMC7660911.
